Where a chain is given by its changes, count along the chain named.
B1: antibody 548 (antibody, V domains shown)
VH: QVQLVESGGGVVQPGRSLRLSCAASGFTFSSYAMHWVRQAPGKGLEWVAVISYDGSNKYYADSVKGRFTISRDNSKNTLYLQMNNLRAEDTAVYYCAKSGSGSYLSAFDIWGQGTMVTVSS
VL: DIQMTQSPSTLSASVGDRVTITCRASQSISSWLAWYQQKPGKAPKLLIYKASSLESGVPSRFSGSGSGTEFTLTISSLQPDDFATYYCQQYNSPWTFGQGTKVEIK
B2: antibody 576 (antibody, V domains shown)
VH: B1 VH with N85S, S99A, S101G, L105Y, S106R, A107G, I110Y, M116L
VL: DIQLTQSPSFLSASVGDRVTITCRASQGISSYLAWYQQKPGKAPKLLIYAASTLQSGVPSRFSGSGSGTEFTLTISSLQPEDFATYYCQQLNSYPTFGPGTKVDIK
B3: antibody 569 (antibody, V domains shown)
VH: B1 VH with N85S, K98R, S99A, G100S, S103G, L105Q, S106G, A107P, I110P, M116L
VL: EIVLTQSPATLSLSPGERATLSCRASQSVSSYLAWYQQKPGQAPRLLIYDASNRATGIPARFSGSGSGTDFTLTISSLEPEDFAVYYCQQRSSPFGPGTKVDIK
B4: antibody 571 (antibody, V domains shown)
VH: EVQLVESGGGLVQPGGSLRLSCAASGFTFSTYWMTWVRQAPGKGLEWVANIKHDGSGKYHVDSVKGRFTISRDNAKNSLYLQMNSLRAEDTAVYYCTRDEGGWYDYWGQGTLVTVSS
VL: QSALTQPASVSGSPGQSITISCTGTSSDVGSYNPVSWYQQHPGKAPKVMIYEGSKRPSGVSNRFSGSKSGNTASLTISGLQAEDEADYYCCSYARSSTFVVFGGGTKLTVL
B5: antibody 563 (antibody, V domains shown)
VH: QVQLVESGGGVVQPGRSLRLSCAASGFTFSSYAMHWVRQAPGKGLEWVAVISDDGSNKYYADSVKGRFTISRDNSKNTLYLQMNSLRAEDTAVYYCARDIVATIRRLFDYWGQGTLVTVSS
VL: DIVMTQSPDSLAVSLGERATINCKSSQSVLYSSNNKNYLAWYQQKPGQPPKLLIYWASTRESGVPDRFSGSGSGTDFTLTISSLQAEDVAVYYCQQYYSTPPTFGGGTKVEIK
B6: antibody 546 (antibody, V domains shown)
VH: QVQLVESGGGVVQPGRSLRLSCAASGFTFSSYGMHWVRQAPGKGLEWVAVIWYDGSNKYYADSVKGRFTISRDNSKNTLYLQMNSLRAEDTAVYYCARNCGGDCVAGDGFDYWGQGTLVTVSS
VL: DIQMTQSPSSLSASVGDRVTITCRASQSISSYLNWYQQKPGKAPNLLIYAASSLQSGVPSRFSGSGSGTDFTLTISSLQPEDFATYYCQQSYSALTWTFGQGTKVEIK
B7: antibody 566 (antibody, V domains shown)
VH: QVQLVQSGAEVKKPGASVKVSCKASGYTFTSYAMHWVRQAPGQRLEWMGWINAGNGNTKYSQKFQGRVTITRDTSASTAYMELSSLRSEDTAVYYCARDLGVAVTLHPADFDYWGQGTLVTVSS
VL: QSVLTQPPSVSGAPGQRVTISCTGSSSNIGAGYDVHWYQQLPGTAPKLLIYDNSNRPSGVPDRFSGSKSGTSASLAITGLQAEDEADYYCQSYDSSLSAVVFGGGTKLTVL
B8: antibody 560 (antibody, V domains shown)
VH: EVQLVESGGGLVQPGGSLRLSCAASGFTISSNYMSWVRQAPGKGLEWVSVIYSGGSTYYADSVKGRFTISRDNSKNTLYLQMNSLRAEDTAVYYCAREEGEWEKDYYGMDVWGQGTTVTVSS
VL: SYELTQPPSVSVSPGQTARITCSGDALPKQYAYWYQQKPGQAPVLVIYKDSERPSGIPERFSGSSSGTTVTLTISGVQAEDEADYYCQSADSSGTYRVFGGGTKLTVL
B9: antibody 564 (antibody, V domains shown)
VH: QVHLVESGGGVVQPGKSLRLSCAASGFIFSSFGMHWVRQPPGKGLEWLAVVSYDGSVTKYSDSFEGRFTISRDNSKNTLYLQMDSLRPEDTAVYYCAKGQGTNLLHYWGQGILVTVSS
VL: DVVLSQSPLSLPVTLGQPASISCRSSESLVYTDGDTYLHWFHQRPGQSPRRLIFKVSHRESGVPDRISGSGSGTDFTLKISRVEAEDVGVYYCMQGTHWPFTFGPGTKVDIK
B10: antibody 556 (antibody, V domains shown)
VH: QVQLVESGGGVVQPGRSLRLSCAASGFTFSSYAMHWVRQAPGKGLEWVAVISYDGSDKYYADSVKGRVTISRDNSKNTLYLQMNSLRVEDTAVFYCAKDDCSGGVCFPDYWGQGTLVTVSS
VL: QSALTQPASVSGSPGQSITISCTGTSSDVGGYNYVSWYQQHPGKAPKLMIYEVSIRPSGVSNRFSGSKSGNTASLTISGLQAEDEAAYYCSSYTSSSTLVFGGGTKLTVL
B11: anti-SARS-CoV-2 antibody 966 (antibody, V domains shown)
VH: QVQLVESGGGVVQPGRSLRLSCAASEFTFSSYGMHWVRQAPGKGLEWVAVISHDGSNEYYADSVKGRFTISRDNSKNTLYLQMNSLRAEDTAVYYCAKWRGPHRGYYDRSGYYLGSSRDDYWGQGTLVTVSS
VL: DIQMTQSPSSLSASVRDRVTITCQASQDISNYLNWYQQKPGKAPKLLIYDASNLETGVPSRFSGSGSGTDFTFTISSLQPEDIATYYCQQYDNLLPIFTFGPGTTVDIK
B12: anti-SARS-CoV-2 antibody 1027 (antibody, V domains shown)
VH: EVQLVESGGGLVQPGGSLRLSCAASGFTVSSNYMSWVRQAPGKGLEWVSIIYSGGSTFYADSVKGRFTISRDSSKNTLYLQMSSLRAEDTAVYYCARDLDYYGMDVWGQGTTVTVSS
VL: DIQLTQSPSFLSAPVGDRVTITCRASQGISSYLAWYQQKPGKAPKLLIYGASTLQSGVPSRFSGSGSGTEFTLTISSLQPEDFATYYCQQLNSYQRFTFGPGTKVEIK
B13: anti-SARS-CoV-2 antibody 1012 (antibody, V domains shown)
VH: EVQVVESGGGLVQPGGSRRLSCTASGFTLRNYWMSWVRQAPGKGLEWVANIKQDGSEKYYVDSVKGRFTISRDNAKNSLYLQMDSLRAEDTAVYYCARGGRYCPGGSCPRWGRGTLVTVSS
VL: DIQMTQSPSSLSASVGDRVTITCQASQDISNFLNWYQLKPGEAPTLLIFDASKLETGVPSRFSGTGFGTDFTFTISSLQPEDTATYYCQQYDDLTSITLGQGTRLEIK
B14: anti-SARS-CoV-2 antibody 989 (antibody, V domains shown)
VH: QVQLQESGPGLVKPSQTLSLTCTVSGGSISSGSYYWSWIRQPAGKGLEWIGRIYTSGSTNYNPSLKSRVTMSVDTSKNHFSLKLRSVTAADTAVYYCARGIAVAGDDDYYYYYGLDVWGQGTTVTVSS
VL: SYELTQPPSVSVSPGQTARITCSGDALPKQYAYWYQQKPGQAPVMVINKDSERPSGIPERFSGSSSGTTVTLTISGVQAEDEADYYCHSADSSGTYWVFGGGTKLTVL
B15: anti-SARS-CoV-2 antibody 1091 (antibody, V domains shown)
VH: EVQLVESGGGLVKPGGSLRLSCAASGFPFITYSMNWVRQAPGKGLEWVSSISRNSDYIYYADSVRGRVTISRDNAENSLYLQMHSLRAEDTAVYYCARDVVRSGNYYIPRHGMDVWGRGTTVTVSS
VL: QSVLTQPPSASGTPGQRVTISCSGTSSNIGSNTVNWYQQLPETAPKLLIYGTDQRPSGVPDRFSGSKSGTSASLAISRLQSEDEADYYCATRDDSLSGPVFGGGTQLTVL
B16: anti-SARS-CoV-2 antibody 1015 (antibody, V domains shown)
VH: EVQLVESGGGLVQPGGSLRLSCAASGFTFSSYWMHWVRQAPGKGLVWVSHINSDGSSTSYADSVKGRFTISRDNAKNTLYLQMNSLRAEDTAVYYCARGLRYFDLDVWGQGTTVTVSS
VL: QSVLTQPPSVSEAPRQRVTISCSGSSSNIGNNAVNWYQQLPGKAPKLLIFYDDLLPSGVSDRFSGSKSGTSASLAISGLQSEDEADYYCAAWDDSLNGGVFGGGTKLTVL
B17: anti-SARS-CoV-2 antibody 1000 (antibody, V domains shown)
VH: EVQLVESGGGLVQPGRSLRLSCAASGFTFDDYAMHWVRQAPGEGLEWVSGISWNSGSIGYADSVKGRFTISRDNAKNSLYLQMNSLRAEDTALYYCAKDTRFSFGTIAAAVSGYGMDVWGQGTTVTVSS
VL: QSALTQPASVSGSPGQSITISCTGTSSDVGIFNLVSWYQQHPGKAPKLMIYEVTKRPSGVSNRFSGSKSGNTASLTISGLQAEDEADYYCCSYAGSYVFGTGTKVTVL
B18: anti-SARS-CoV-2 antibody 1037 (antibody, V domains shown)
VH: QITLKESGPTLVKPTQTLTLTCTFSGFSLSTSGVGVGWIRQPPGKALEWLALIYWDDDKRYSPSLKSRLTITKDTSKNQVVLTMTNMDPVDTATYYCAHHTITRINDYWGQGTLVTVSS
VL: QSALTQPASVSGSPGQSITISCTATSSDVGAYNYVSWYQQHPGKAPKLMIYDVSKRPSGVSNRFSGSKSGNTASLTISGLQAEDEADYYCSSYTSSSTVFGGGTKLTVL
B19: anti-SARS-CoV-2 antibody 1081 (antibody, V domains shown)
VH: EVQLVQSGAEVKKPGESLKISCKRSGYSFTTYWIGWVRQMPGKGLEWMGSIYPGDSDTRYSPSFQGQVTISADKSISTAYLQWSSLKASDTAMYYCASQEVPGYYYYMDVWGKGTTVTVSS
VL: B6 VL with N34H, N45K, S91T, A94T, L95H
B20: anti-SARS-CoV-2 antibody 1075 (antibody, V domains shown)
VH: QVQLVQSGAEVKKPGASVKVSCKVSGYTLIELSMHWVRQAPGKGLEWMGGFDPEDGETIYAQKFQGRVTMTEDTSTDTAYMELSSLRSEDTAVYYCATEWAYYGSGSYLGYWGQGTLVTVSS
VL: EIVMTQSPATLSVSPGERATLSCRASQSVSSNLAWFQQKPGQAPRLLIYGASTRVTVIPARFSGSGSGTEFTLTISSLQSEDFAVYYCQQYNNWPRTFGQGTKVEIK

Target: SARS-CoV spike protein (full-length trimeric, conjugated to optically encoded beads) (SARS-CoV, UniProt P59594 14-1190)
Experiment: not given

| Binder | fold over isotype control (median fluorescence intensity) |
| --- | --- |
| B1 | 18.1 fold over isotype |
| B2 | 6.87 fold over isotype |
| B3 | 3.31 fold over isotype |
| B4 | 1.28 fold over isotype |
| B5 | 35.4 fold over isotype |
| B6 | 1.18 fold over isotype |
| B7 | 0.97 fold over isotype |
| B8 | 1.14 fold over isotype |
| B9 | 37.3 fold over isotype |
| B10 | 1.09 fold over isotype |

Target: SARS-CoV-2 spike protein (wild type), spike protein trimer (SARS-CoV-2, UniProt P0DTC2 14-1208)
Experiment: not given

| Binder | Kd |
| --- | --- |
| B11 | 1800 pM |
| B12 | 205 pM |
| B13 | 139 pM |
| B14 | 104 pM |
| B15 | 54 pM |
| B16 | 96 pM |
| B17 | 92 pM |
| B18 | 126 pM |
| B19 | 93 pM |
| B20 | 93 pM |

Target: spike protein of SARS-CoV-2 clinical isolate USA/WA/1/2020 (live virus) (SARS-CoV-2, UniProt P0DTC2 14-1273)
Experiment: cell-based or functional assay

| Binder | Live Virus Neutralization IC50 |
| --- | --- |
| B11 | > 10 µg/mL |
| B12 | 0.005 µg/mL |
| B13 | 0.028 µg/mL |
| B14 | 1.5 µg/mL |
| B15 | 0.074 µg/mL |
| B16 | 0.032 µg/mL |
| B17 | 0.013 µg/mL |
| B18 | 0.009 µg/mL |
| B19 | 4.6 µg/mL |
| B20 | 0.011 µg/mL |

Target: SARS-CoV-2 full-length spike protein on pseudotyped lentivirus (SARS-CoV-2, UniProt P0DTC2 14-1273)
Experiment: cell-based or functional assay

| Binder | Pseudo-neutralization IC50 |
| --- | --- |
| B11 | 0.021 µg/mL |
| B12 | 0.01 µg/mL |
| B13 | 0.006 µg/mL |
| B14 | 0.19 µg/mL |
| B15 | 0.016 µg/mL |
| B16 | 0.011 µg/mL |
| B17 | 0.006 µg/mL |
| B18 | 0.025 µg/mL |
| B19 | 0.012 µg/mL |
| B20 | 0.039 µg/mL |
